# Where a chain is given by its changes, count along the chain named. Numbers in names are those of the source.
# T1: CD96 (human) (UniProt P40200)
# T1 sequence: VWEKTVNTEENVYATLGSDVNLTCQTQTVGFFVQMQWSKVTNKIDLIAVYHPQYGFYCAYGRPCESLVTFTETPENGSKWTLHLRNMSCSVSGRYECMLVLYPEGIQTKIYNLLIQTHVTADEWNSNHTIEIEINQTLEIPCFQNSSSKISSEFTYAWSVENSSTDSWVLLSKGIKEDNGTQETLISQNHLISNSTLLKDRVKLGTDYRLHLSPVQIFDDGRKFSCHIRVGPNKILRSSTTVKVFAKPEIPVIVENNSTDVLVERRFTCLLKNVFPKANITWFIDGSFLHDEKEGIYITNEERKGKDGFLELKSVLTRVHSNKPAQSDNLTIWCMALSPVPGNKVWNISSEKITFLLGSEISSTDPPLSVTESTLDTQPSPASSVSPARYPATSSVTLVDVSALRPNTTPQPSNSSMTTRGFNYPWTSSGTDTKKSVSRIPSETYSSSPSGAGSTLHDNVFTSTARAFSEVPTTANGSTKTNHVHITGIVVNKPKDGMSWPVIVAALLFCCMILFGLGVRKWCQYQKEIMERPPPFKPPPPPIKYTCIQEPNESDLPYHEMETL
# B1: variant PD-L2 IgV N24D Fc fusion (Fc fusion)
# chain: LFTVTVPKELYIIEHGSNVTLECDFDTGSHVNLGAITASLQKVENDTSPHRERATLLEEQLPLGKASFHIPQVQVRDEGQYQCIIIYGVAWDYKYLTLKVKA
# B2: variant PD-L2 IgV G28V/Q72H/R76G/I86T Fc fusion (Fc fusion)
# chain: B1 chain with D24N, G28V, Q72H, R76G, I86T
# B3: variant PD-L2 IgV H15Q/N24S/T47A/Q72H/R76G/V89D Fc fusion (Fc fusion)
# chain: B1 chain with H15Q, D24S, T47A, Q72H, R76G, V89D
# B4: variant PD-L2 IgV H15Q/S67L/R76G/I85F Fc fusion (Fc fusion)
# chain: B1 chain with H15Q, D24N, S67L, R76G, I85F
# B5: variant PD-L2 IgV H15Q/T47A Fc fusion (Fc fusion)
# chain: B1 chain with H15Q, D24N, T47A
# B6: variant PD-L2 IgV H15Q/Q82R/V89D Fc fusion (Fc fusion)
# chain: B1 chain with H15Q, D24N, Q82R, V89D
# B7: variant PD-L2 IgV I13V/H15Q/T47A/R76G/V89D Fc fusion (Fc fusion)
# chain: B1 chain with I13V, H15Q, D24N, T47A, R76G, V89D
# B8: variant PD-L2 IgV E44D Fc fusion (Fc fusion)
# chain: B1 chain with D24N, E44D
# B9: variant PD-L2 IgV V89D Fc fusion (Fc fusion)
# chain: B1 chain with D24N, V89D
# B10: variant PD-L2 IgV H15Q/V89D Fc fusion (Fc fusion)
# chain: B1 chain with H15Q, D24N, V89D
# B11: variant PD-L2 IgV H15Q/T47A/Q72H/R76G/I86T Fc fusion (Fc fusion)
# chain: B1 chain with H15Q, D24N, T47A, Q72H, R76G, I86T
# B12: variant PD-L2 IgV H15Q/K65R Fc fusion (Fc fusion)
# chain: B1 chain with H15Q, D24N, K65R
# B13: variant PD-L2 IgV H15Q/Q72H/V89D Fc fusion (Fc fusion)
# chain: B1 chain with H15Q, D24N, Q72H, V89D
# B14: variant PD-L2 IgV I13V/H15Q/T37A/E44D/S48C/S67L/Q82R/V89D Fc fusion (Fc fusion)
# chain: B1 chain with I13V, H15Q, D24N, T37A, E44D, S48C, S67L, Q82R, V89D
# B15: variant PD-L2 IgV S67L/I85F Fc fusion (Fc fusion)
# chain: B1 chain with D24N, S67L, I85F
# B16: Full length ECD of PD-L2, Fc fusion (Fc fusion)
# chain: LFTVTVPKELYIIEHGSNVTLECNFDTGSHVNLGAITASLQKVENDTSPHRERATLLEEQLPLGKASFHIPQVQVRDEGQYQCIIIYGVAWDYKYLTLKVKASYRKINTHILKVPETDEVELTCQATGYPLAEVSWPNVSVPANTSHSRTPEGLYQVTSVLRLKPPPGRNFSCVFWNTHVRELTLASIDLQSQMEPRTHPT
# B17: PD-L1 IgV-Fc I20L/I36T/N45D/I47T (Fc fusion)
# chain: FTVTVPKDLYVVEYGSNMTLECKFPVEKQLDLAALTVYWEMEDKDITQFVHGEEDLKVQHSSYRQRARLLKDQLSLGNAALQITDVKLQDAGVYRCMISYGGADYKRITVKVNA
# B18: ICOSL ECD-Fc N52S (Fc fusion)
# chain: DTQEKEVRAMVGSDVELSCACPEGSRFDLNDVYVYWQTSESKTVVTYHIPQSSSLENVDSRYRNRALMSPAGMLRGDFSLRLFNVTPQDEQKFHCLVLSQSLGFQEVLSVEVTLHVAANFSVPVVSAPHSPSQDELTFTCTSINGYPRPNVYWINKTDNSLLDQALQNDTVFLNMRGLYDVVSVLRIARTPSVNIGCCIENVLLQQNLTVGSQTGNDIGERDKITENPVSTGEKNAAT
# B19: ICOSL ECD-Fc N52S/Y152H (Fc fusion)
# chain: B18 chain with Y152H
# B20: ICOSL ECD-Fc N52S/D158G (Fc fusion)
# chain: B18 chain with D158G
# B21: ICOSL ECD-Fc N52S/Y146C/Y152C (Fc fusion)
# chain: B18 chain with Y146C, Y152C
# B22: ICOSL ECD-Fc N52D (Fc fusion)
# chain: B18 chain with S52D
# B23: ICOSL ECD-Fc F120S/Y152H/N201S (Fc fusion)
# chain: B18 chain with S52N, F120S, Y152H, N201S
# B24: variant CD155 IgV-Fc, T45Q, S52R, L104E (Fc fusion)
# chain: WPPPGTGDVVVQAPTQVPGFLGDSVTLPCYLQVPNMEVTHVSQLQWARHGERGSMAVFHQTQGPSYSESKRLEFVAARLGAELRNASLRMFGLRVEDEGNYTCEFVTFPQGSRSVDIWLRVL
# B25: variant PD-L1 K57R/S99G/R195G Fc fusion (Fc fusion)
# chain: FTVTVPKDLYVVEYGSNMTIECKFPVEKQLDLAALIVYWEMEDKNIIQFVHGEEDLRVQHSSYRQRARLLKDQLSLGNAALQITDVKLQDAGVYRCMIGYGGADYKRITVKVNAPYNKINQRILVVDPVTSEHELTCQAEGYPKAEVIWTSSDHQVLSGKTTTTNSKREEKLFNVTSTLRINTTTNEIFYCTFRGLDPEENHTAELVIPELPLAHPPNER
# B26: variant PD-L1 I36T/M97L/Q155H/F193S/N201Y Fc fusion (Fc fusion)
# chain: B25 chain with I36T, R57K, M97L, G99S, Q155H, F193S, G195R, N201Y
# B27: variant PD-L1 I36T/I83T/M97L/K144E/P198T Fc fusion (Fc fusion)
# chain: B25 chain with I36T, R57K, I83T, M97L, G99S, K144E, G195R, P198T
# B28: variant PD-L1 N17D/M97L/S99G Fc fusion (Fc fusion)
# chain: B25 chain with N17D, R57K, M97L, G195R
# B29: variant PD-L1 Y10F/M18V/S99G/Q138R/T203A Fc fusion (Fc fusion)
# chain: B25 chain with Y10F, M18V, R57K, Q138R, G195R, T203A
# B30: ICOSL 2264 (monomeric variant ICOSL IgV N52H/N57Y/Q100R) (ligand)
# chain: DTQEKEVRAMVGSDVELSCACPEGSRFDLNDVYVYWQTSESKTVVTYHIPQHSSLEYVDSRYRNRALMSPAGMLRGDFSLRLFNVTPQDEQKFHCLVLSRSLGFQEVLSVEVTLHVAANFSV
# B31: Variant CD80 E35G/K54E/A71D/L72P Fc fusion (Fc fusion)
# chain: VIHVTKEVKEVATLSCGHNVSVEELAQTRIYWQKGKKMVLTMMSGDMNIWPEYENRTIFDITNNLSIVILDPRPSDEGTYECVVLKYEKDAFKREHLAEVT
# Biological target: human PD-1 (human) (UniProt Q15116)
# Assay: not given
# Sequence of human PD-1 (human) (Q15116 25-288): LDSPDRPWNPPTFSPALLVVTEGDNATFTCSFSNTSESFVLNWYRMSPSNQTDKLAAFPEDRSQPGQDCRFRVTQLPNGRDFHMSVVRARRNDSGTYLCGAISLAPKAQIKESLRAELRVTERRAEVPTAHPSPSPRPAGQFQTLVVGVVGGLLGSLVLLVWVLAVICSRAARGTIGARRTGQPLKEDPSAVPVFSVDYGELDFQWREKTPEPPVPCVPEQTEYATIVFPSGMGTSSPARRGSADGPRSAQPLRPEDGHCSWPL
row,IFN gamma levels pg/mL (MLR) [pg/mL],Binder
1,1980,B1
2,1780,B2
3,1090,B3
4,1320,B4
5,1640,B5
6,1080,B6
7,1250,B7
8,1500,B8
9,1170,B9
10,1500,B10
11,1600,B11
12,1510,B12
13,1270,B13
14,1750,B14
15,1280,B15
16,1170,B16

# Biological target: human PD-1 (human) (UniProt Q15116)
# Assay: flow cytometry, Jurkat/PD-1 cells
Fold increase over wildtype PD-L1 IgV-Fc [fold],MFI at 50 nM,Binder
0.6,3120,B17

# Biological target: CD28, full-length, expressed on transfected cells (Homo sapiens (Human)) (UniProt P10747)
# Assay: flow cytometry, cells expressing target
MFI [MFI],parental ratio,Binder
162,9 ratio to WT,B18
68,3.78 ratio to WT,B19
39,2.17 ratio to WT,B20
39,2.17 ratio to WT,B21
130,7.22 ratio to WT,B22
16,0.89 ratio to WT,B23

# Biological target: T1, CD96 (human)
# Assay: flow cytometry, transfected HEK293 cells
row,MFI at 100 nM,Binder
1,3750,B24

# Biological target: human PD-1 (human) (UniProt Q15116)
# Assay: flow cytometry, Jurkat/PD-1 cells, 50 nM
row,MFI at 50 nM [MFI],Binder
1,12600,B13
2,2140,B16

# Biological target: CD80 (human)
# Assay: flow cytometry, cells expressing CD80, 20 nM
# Sequence of CD80 (human) (chain, as listed by the source): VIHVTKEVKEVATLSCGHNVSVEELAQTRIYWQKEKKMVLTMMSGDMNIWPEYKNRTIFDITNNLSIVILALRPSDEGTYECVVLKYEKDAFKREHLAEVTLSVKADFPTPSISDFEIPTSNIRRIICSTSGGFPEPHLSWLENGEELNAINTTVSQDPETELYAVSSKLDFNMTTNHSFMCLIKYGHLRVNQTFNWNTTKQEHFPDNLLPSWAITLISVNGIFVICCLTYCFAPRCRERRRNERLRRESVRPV
row,MFI at 20 nM [MFI],Binder
1,11000,B25
2,1250,B26

# Biological target: human PD-1 (human) (UniProt Q15116)
# Assay: flow cytometry, cells expressing PD-1, 20 nM
row,MFI at 20 nM [MFI],Binder
1,62,B27
2,10100,B28
3,70,B29

# Substrate: ICOS as used in the OD read-out of Table E15A (Homo sapiens (Human)) (UniProt Q9Y6W8)
# Assay: OD read-out, format not told
OD [OD],parental ratio,Binder
1.33,1.55 ratio to WT,B18
0.85,0.99 ratio to WT,B19
1.33,1.55 ratio to WT,B20
1.26,1.47 ratio to WT,B21
1.59,1.85 ratio to WT,B22
0.63,0.73 ratio to WT,B23

# Biological target: human PD-1 (human) (UniProt Q15116)
# Assay: flow cytometry, CHO/PD-1 cells, 100 nM, anti-Flag
row,MFI,Binder
1,1510,B30

# Biological target: human CTLA-4 (human)
# Assay: flow cytometry, CHO/CTLA-4 cells, 100 nM, anti-Flag
# Sequence of human CTLA-4 (human) (chain, as listed by the source): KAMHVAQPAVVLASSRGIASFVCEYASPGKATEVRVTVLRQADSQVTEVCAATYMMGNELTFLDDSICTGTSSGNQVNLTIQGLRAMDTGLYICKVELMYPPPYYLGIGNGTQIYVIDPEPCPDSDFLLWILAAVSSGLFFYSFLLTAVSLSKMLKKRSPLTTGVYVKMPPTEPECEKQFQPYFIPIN
row,MFI,Binder
1,70800,B30

# Biological target: PD-L1 (human)
# Assay: flow cytometry on HEK293 cells transfected with PD-L1
# Sequence of PD-L1 (human) (chain, as listed by the source): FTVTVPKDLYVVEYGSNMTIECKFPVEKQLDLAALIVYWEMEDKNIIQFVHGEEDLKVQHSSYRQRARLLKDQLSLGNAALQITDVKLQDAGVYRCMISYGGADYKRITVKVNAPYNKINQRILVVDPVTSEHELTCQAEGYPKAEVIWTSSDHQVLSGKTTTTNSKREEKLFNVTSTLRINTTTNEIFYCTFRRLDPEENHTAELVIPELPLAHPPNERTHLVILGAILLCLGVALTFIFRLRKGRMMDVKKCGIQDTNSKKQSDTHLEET
row,MFI at 22.2 nM [MFI],Binder
1,1580,B31

# Biological target: PD-1-Fc (human) (UniProt Q15116)
# Assay: ForteBio Octet, PD-1 on anti-human capture sensor, 100 nM
# Sequence of PD-1-Fc (human) (Q15116 25-167 limits assumed): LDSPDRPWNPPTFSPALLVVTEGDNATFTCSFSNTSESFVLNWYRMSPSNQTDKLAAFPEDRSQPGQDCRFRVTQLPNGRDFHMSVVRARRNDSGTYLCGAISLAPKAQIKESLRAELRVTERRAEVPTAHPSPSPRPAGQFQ
row,Fortebio Response Units (Response Units),Binder
1,-0.039,B1
2,0.003,B2
3,0.4,B3
4,0.025,B4
5,0.016,B5
6,1.2,B6
7,1.6,B7
8,-0.006,B8
9,0.005,B9
10,0.31,B10
11,0.512,B11
12,-0.001,B12
13,1.25,B14
14,-0.005,B15

# Biological target: CD28 (human) (UniProt P10747)
# Assay: flow cytometry, Jurkat cells (endogenous CD28), 100 nM, anti-Flag
row,MFI,Binder
1,16100,B30

# Reference: patent US20250163127A1
